Several values for one entry are separate records, joined by “and”; a condition that tells them apart may be missing. Identical values can stand only once.
T1: Merkel cell polyomavirus T antigen KLL epitope homolog (C-terminal cysteine replaced by alanine) peptide on … (human)
T1 peptide: KLLEIAPNA

T2: Merkel cell polyomavirus T antigen (common to large and small T antigen) peptide on HLA-A*02:01 (human)
T2 peptide: KLLEIAPNC

T3: Merkel cell polyomavirus T antigen (common to large and small T antigen) peptide on HLA-A*02:01 (human)
T3 peptide: KLLEIAPNC

B1: w876 clonotype 10 (TCR)
alpha TRAV12-1*01 TRAJ37*02 CDR3: CVVYGSSNTGKLIF
beta TRBV10-3*01 TRBJ2-2*01 CDR3: CAIRRQDQNTGELFF
B2: X389-6 (TCR, V domains shown)
Valpha: ILNVEQSPQSLHVQEGDSTNFTCSFPSSNFYALHWYRWETAKSPEALFVMTLNGDEKKKGRISATLNTKEGYSYLYIKGSQPEDSATYLCAWNTDKLIFGTGTRLQVFP
Vbeta: DAGVIQSPRHEVTEMGQEVTLRCKPISGHNSLFWYRQTMMRGLELLIYFNNNVPIDDSGMPEDRFSAKMPNASFSTLKIQPSEPRDSAVYFCASSLAGDRSFGPGTRLTVT
B3: w876 clonotype 17 (TCR)
alpha TRAV12-1*01 TRAJ37*02 CDR3: CVVYGSSNTGKLIF
beta TRBV7-2*04 TRBJ2-1*01 CDR3: CASSLAGLANNEQFF
B4: w683 clonotype 2 (TCR)
alpha TRAV12-1*01 TRAJ43*01 CDR3: CVLNNNDMRF
beta TRBV6-5*01 TRBJ1-2*01 CDR3: CASRSQNYYGYTF
B5: w876 clonotype 6 (TCR)
alpha TRAV12-1*01 TRAJ3*01 CDR3: CVVPLYSSASKIIF
beta TRBV6-1*01 TRBJ1-1*01 CDR3: CASSDTPDLNTEAFF
B6: w876 clonotype 12 (TCR)
alpha TRAV3*01 TRAJ40*01 CDR3: CAVRDNSGTYKYIF
beta TRBV7-2*04 TRBJ2-3*01 CDR3: CASSLAGLAGTDTQYF
B7: MCC1 (TCR, V domains shown)
Valpha: RKEVEQDPGPFNVPEGATVAFNCTYSNSASQSFFWYRQDCRKEPKLLMSVYSSGNEDGRFTAQLNRASQYISLLIRDSKLSDSATYLCVVATYSGGGADGLTFGKGTHLIIQP
Vbeta: DAGITQSPRYKITETGRQVTLMCHQTWSHSYMFWYRQDLGHGLRLIYYSAAADITDKGEVPDGYVVSRSKTENFPLTLESATRSQTSVYFCASSSGNPSTDTQYFGPGTRLTVL
B8: w876 clonotype 5 (TCR)
alpha TRAV38-1*01 TRAJ23*01 CDR3: CAYNQGGKLIF
beta TRBV10-2*01 TRBJ2-2*01 CDR3: CASSVLNTGELFF
B9: MCC1H (TCR, V domains shown)
Valpha: QQQVKQSPQSLIVQKGGISIINCAYENTAFDYFPWYQQFPGKGPALLIAIRPDVSEKKEGRFTISFNKSAKQFSLHIMDSQPGDSATYFCAVPNTGNQFYFGTGTSLTVIP
Vbeta: GAGVSQSPRYKVAKRGQDVALRCDPISGHVSLFWYQQALGQGPEFLTYFQNEAQLDKSGLPSDRFFAERPEGSVSTLKIQRTQQEDSAVYLCASSLIAGLSYEQYFGPGTRLTVT
B10: w876 clonotype 8 (TCR)
alpha TRAV12-1*01 TRAJ3*01 CDR3: CVVYASKIIF
beta TRBV6-1*01 TRBJ1-1*01 CDR3: CASSDTPDLNTEAFF
B11: w830 clonotype 5 (TCR)
alpha TRAV12-1*01 TRAJ43*01 CDR3: CVVNANDMRF
beta TRBV10-3*01 TRBJ2-2*01 CDR3: CAIRARDQNTGELFF
B12: w876 clonotype 19 (TCR)
alpha TRAV12-1*01 TRAJ45*01 CDR3: CVVYTGYSGGGADGLTF
beta TRBV10-2*01 TRBJ2-2*01 CDR3: CASSGQNTGELFF
B13: w876 clonotype 20 (TCR)
alpha TRAV10*01 TRAJ45*01 CDR3: CVVSAGINGADGLTF
beta TRBV12-4*01 TRBJ2-1*01 CDR3: CASSPWDEQFF
B14: w678 clonotype 2 (TCR)
alpha TRAV38-1*01 TRAJ43*01 CDR3: CAFRVSHDMRF
beta TRBV19*01 TRBJ2-1*01 CDR3: CASSIIAGSSYNEQFF
B15: w876 clonotype 2 (TCR)
alpha TRAV12-1*01 TRAJ45*01 CDR3: CVVTEYSGGGADGLTF
beta TRBV10-3*01 TRBJ2-2*01 CDR3: CASRGQNTGELFF
B16: w876 clonotype 23 (TCR)
alpha TRAV12-3*01 TRAJ57*01 CDR3: CAMSVAQGGSEKLVF
beta TRBV6-6*01 TRBJ2-7*01 CDR3: CASSYQIGLSYEQYF
B17: w830 clonotype 4 (TCR)
alpha TRAV12-1*01 TRAJ43*01 CDR3: CVLNNNDMRF
beta TRBV19*01 TRBJ1-5*01 CDR3: CASSILGASNQPQHF
B18: w876 clonotype 29 (TCR)
alpha TRAV12-1*01 TRAJ3*01 CDR3: CVVPLYSSASKIIF
beta TRBV10-2*01 TRBJ2-2*01 CDR3: CASSVLNTGELFF
B19: w876 clonotype 4 (TCR)
alpha TRAV12-1*01 TRAJ45*01 CDR3: CVVYTGYSGGGADGLTF
beta TRBV10-2*01 TRBJ2-2*01 CDR3: CASSVLNTGELFF
B20: w876 clonotype 27 (TCR)
alpha TRAV3*01 TRAJ11*01 CDR3: CALTGYSTLTF
beta TRBV19*01 TRBJ2-1*01 CDR3: CASRSQLAVLNEQFF
B21: w876 clonotype 3 (TCR)
alpha TRAV19*01 TRAJ40*01 CDR3: CALGGGTFTSGTYKYIF
beta TRBV9*02 TRBJ2-2*01 CDR3: CASSVEDYTGELFF
B22: w876 clonotype 18 (TCR)
alpha TRAV14 TRAJ13*01 CDR3: CAMREAQSGGYQKVTF
beta TRBV12-4*01 TRBJ2-3*01 CDR3: CASSFGSGTKDTQYF
B23: w876 clonotype 11 (TCR)
alpha TRAV12-1*01 TRAJ45*01 CDR3: CVVYTGYSGGGADGLTF
beta TRBV10-3*01 TRBJ2-2*01 CDR3: CAIHEGDSNTGELFF
B24: X389-8 (TCR, V domains shown)
Valpha: RKEVEQDPGPFNVPEGATVAFNCTYSNSASQSFFWYRQDCRKEPKLLMSVYSSGNEDGRFTAQLNRASQYISLLIRDSKLSDSATYLCVVTGTGGFKTIFGAGTRLFVKA
Vbeta: GEEVAQTPKHLVRGEGQKAKLYCAPIKGHSYVFWYQQVLKNEFKFLISFQNENVFDETGMPKERFSAKCLPNSPCSLEIQATKLEDSAVYFCASSSMSIAAGNTGELFFGEGSRLTVL
B25: w876 clonotype 14 (TCR)
alpha TRAV12-1*01 TRAJ27*01 CDR3: CVVPSAGKSTF
beta TRBV2*03 TRBJ2-5*01 CDR3: CASSEFAGQETQYF
B26: w876 clonotype 21 (TCR)
alpha TRAV3*01 TRAJ40*01 CDR3: CAVRDNSGTYKYIF
beta TRBV13*02 TRBJ2-1*01 CDR3: CASSSGTSGGLTYNEQFF
B27: w876 clonotype 26 (TCR)
alpha TRAV12-1*01 TRAJ45*01 CDR3: CVVYTGYSGGGADGLTF
beta TRBV13*02 TRBJ2-1*01 CDR3: CASSSGTSGGLNYNEQFF
B28: w876 clonotype 9 (TCR)
alpha TRAV12-1*01 TRAJ43*01 CDR3: CVGNNNDMRF
beta TRBV10-3*01 TRBJ2-2*01 CDR3: CAISARDQNTGELFF
B29: w683 clonotype 1 (TCR)
alpha TRAV12-1*01 TRAJ45*01 CDR3: CVVALYSGGGADGLTF
beta TRBV6-5*01 TRBJ1-2*01 CDR3: CASRSQNYYGYTF
B30: w678 clonotype 1 (TCR)
alpha TRAV12-1*01 TRAJ43*01 CDR3: CVLNNNDMRF
beta TRBV10-3*01 TRBJ2-2*01 CDR3: CAIRQFDANTGELFF
B31: w876 clonotype 1 (TCR)
alpha TRAV12-1*01 TRAJ45*01 CDR3: CVVGEYSGGGADGLTF
beta TRBV28*01 TRBJ2-1*01 CDR3: CAIRAGASYNEQFF
B32: w830 clonotype 3 (TCR)
alpha TRAV38-1*01 TRAJ34*01 CDR3: CAYPSTDKLIF
beta TRBV19*01 TRBJ1-5*01 CDR3: CASSILGASNQPQHF
B33: w876 clonotype 13 (TCR)
alpha TRAV12-1*01 TRAJ45*01 CDR3: CVVTDTSGGGADGLTF
beta TRBV7-2*04 TRBJ2-3*01 CDR3: CASSLAGLAGTDTQYF
B34: w678 clonotype 5 (TCR)
alpha TRAV38-1*01 TRAJ43*01 CDR3: CAFRVSHDMRF
beta TRBV10-2*01 TRBJ2-3*01 CDR3: CASSSGNPSTDTQYF
B35: w678 clonotype 3 (TCR)
alpha TRAV12-1*01 TRAJ45*01 CDR3: CVVATYSGGGADGLTF
beta TRBV19*01 TRBJ2-1*01 CDR3: CASSIIAGSSYNEQFF
B36: w830 clonotype 2 (TCR)
alpha TRAV38-1*01 TRAJ27*01 CDR3: CALTSGSRLTF
beta TRBV19*01 TRBJ1-5*01 CDR3: CASSIMLYSNQPQHF
B37: w876 clonotype 16 (TCR)
alpha TRAV38-1*01 TRAJ23*01 CDR3: CAYNQGGKLIF
beta TRBV19*01 TRBJ2-1*01 CDR3: CASSTLSGTHNEQFF

Tests used:
[1] = molecular target: HLA-A*02 (Homo sapiens, UniProt P04439, D140Y/D185E/D98H/E176V/E277Q/G131W/G231S/I119V/I121R/I166T/I218V/L300P/L318F/N151K/N90K/P208A/P217A/Q86G/Q94H/R138H/R169H/T345S); test: HLA-A*02 binding prediction (ANN, Immune Epitope Database Analysis Resource); details: KLL epitope versus homologs of other polyomaviruses
Source text: Residues at positions 15, 18 and 20-22 (underlined) are highly divergent.

[2] = system: MCC; test: Clinical trial: avelumab plus MCPyV-specific T cells and HLA-upregulation (NCT02584829); details: avelumab in addition to MCPyV-specific T cells and HLA-upregulation
[3] = molecular target: T1, Merkel cell polyomavirus T antigen KLL …; test: IFN-g ELISA; T2 + peptide titration; T cell clone or line
[4] = molecular target: T2, Merkel cell polyomavirus T antigen …; test: multimer staining
[5] = molecular target: T3, Merkel cell polyomavirus T antigen …; test: multimer staining
[6] = molecular target: T2, Merkel cell polyomavirus T antigen …; test: binding, other
[7] = molecular target: T2, Merkel cell polyomavirus T antigen …; test: IFN-g ELISA; COS-7 given HLA-A*02:01 and tLTAg plasmids (antigen processed); T cell clone or line
Procedure: IFN-γ in cell culture supernatants was assayed by ELISA according to manufacturer's recommendations (Human IFN gamma ELISA Ready-SET-Go Kit, affymetrix). […] Supernatants were assayed by ELISA as described above. […] After incubating for 24 hours, wells were transfected using FuGENE HD (Promega) at a 6:1 ratio of transfection reagent to DNA with 25 ng HLA-A*02:01 and limiting dilution of pDEST103-GFP-tLTAg (25-0.08 ng) plus irrelevant DNA (pcDNA-6/myc-His C, Gateway) to a total of 25 ng. 48 hours after transfection, 10^4 viable KLL-specific T cells in TCM were added to target wells in duplicate. […] Transfected COS-7 cells were harvested at 48 and 72 hours post-transfection to quantitate transfection efficiency by flow cytometry.

Molecule | EC50 of peptide [3] | binding result [4] | binding result [5] | also measured
KLLEIAPNC [MCPyV] | – | – | – | predicted to bind to HLA-A*02 better than homologous peptides [1]: approximately 100 ×
avelumab | – | – | – | objective response ([2]; 5 MCC patients): 80%; duration of complete responses [2]: > 1 year; toxicities with the addition of avelumab [2]: no increased toxicities; complete responses (CRs) ([2]; of 5 MCC patients): 3 patients
B1 | 0.7 ng/mL | recognises | recognises | –
B2 | – | – | – | binding result [6]: recognises
B3 | – | recognises | – | –
B4 | 0.21 ng/mL | recognises | recognises | –
B5 | 0.015 ng/mL and 0.035 ng/mL | recognises | recognises | –
B6 | – | recognises | – | –
B7 | 0.0094 ng/mL and 0.028 ng/mL | recognises | recognises | –
B8 | 0.11 ng/mL | recognises | recognises | –
B9 | – | – | – | binding result [6]: recognises
B10 | – | – | – | EC50 of tLTAg plasmid DNA [7]: 4200 ng/mL
B11 | – | recognises | recognises | –
B12 | 0.92 ng/mL | recognises | recognises | –
B13 | – | recognises | – | –
B14 | 0.017 ng/mL and 0.012 ng/mL | recognises | – | –
B15 | 1.2 ng/mL | recognises | recognises | –
B16 | – | recognises | – | –
B17 | 1.1 ng/mL | recognises | recognises | –
B18 | 0.12 ng/mL and 0.16 ng/mL | – | – | EC50 of tLTAg plasmid DNA [7]: 3300 ng/mL

Molecule | EC50 of peptide [3] | binding result [4] | binding result [5] | also measured
B19 | 0.31 ng/mL | – | – | EC50 of tLTAg plasmid DNA [7]: 14000 ng/mL
B20 | – | recognises | – | –
B21 | 0.12 ng/mL | – | – | EC50 of tLTAg plasmid DNA [7]: 11000 ng/mL
B22 | – | recognises | recognises | –
B23 | – | recognises | recognises | –
B24 | – | – | – | binding result [6]: recognises
B25 | – | – | – | EC50 of tLTAg plasmid DNA [7]: 5400 ng/mL
B26 | – | recognises | – | –
B27 | – | recognises | – | –
B28 | 0.12 ng/mL and 0.24 ng/mL | recognises | recognises | –
B29 | – | recognises | recognises | –
B30 | 0.43 ng/mL and 0.5 ng/mL and 0.47 ng/mL | – | – | EC50 of tLTAg plasmid DNA [7]: 320 ng/mL
B31 | 0.31 ng/mL | – | – | EC50 of tLTAg plasmid DNA [7]: 5600 ng/mL
B32 | – | – | – | EC50 of tLTAg plasmid DNA [7]: 270000 ng/mL
B33 | – | – | – | EC50 of tLTAg plasmid DNA [7]: 3900 ng/mL
B34 | 0.11 ng/mL and 0.054 ng/mL | recognises | – | –
B35 | 0.022 ng/mL and 0.013 ng/mL | – | – | EC50 of tLTAg plasmid DNA [7]: 1000 ng/mL
B36 | – | – | – | EC50 of tLTAg plasmid DNA [7]: 140000 ng/mL
B37 | 0.12 ng/mL | recognises | recognises | –

— patent publication US11534461B2, “High affinity merkel cell polyomavirus T antigen-specific TCRS and uses thereof” (priority 2016, dated 2022)
